Data reported in patent US20230416363A1 (KADMON, published 2023).

Tests used:
[1] = target: T1, mPD1 (soluble, ELISA of Examples 20 and 24) (mouse, UniProt Q02242 25-167, limits assumed); experiment: ELISA, mPD1
T1 construct: also called Biotin-mPD1
T1 sequence (looked up): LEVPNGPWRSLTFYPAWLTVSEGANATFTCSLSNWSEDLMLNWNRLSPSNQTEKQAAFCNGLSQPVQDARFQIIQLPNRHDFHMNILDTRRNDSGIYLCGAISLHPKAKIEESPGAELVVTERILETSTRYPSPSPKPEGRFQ

mPD-1-Fc [2] = target: T2, mPD-1-Fc (mouse; human, UniProt Q02242 25-167, limits assumed); experiment: ELISA, mPD-1-Fc
T2 construct: domain: IgV domain; not shown: human IgG1 Fc
T2 sequence (looked up): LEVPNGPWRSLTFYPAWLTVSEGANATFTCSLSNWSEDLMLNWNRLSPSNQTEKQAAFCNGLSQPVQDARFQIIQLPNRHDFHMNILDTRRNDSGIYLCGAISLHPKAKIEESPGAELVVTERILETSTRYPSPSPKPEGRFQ

mPD-1-Fc [3] = target: T2, mPD-1-Fc; experiment: SPR Biacore, mPD1-Fc
mPD-1-his [4] = target: T3, mPD-1-his (mouse, UniProt Q02242 25-167, limits assumed); experiment: SPR Biacore, mPD1-his
T3 construct: domain: IgV domain
T3 sequence: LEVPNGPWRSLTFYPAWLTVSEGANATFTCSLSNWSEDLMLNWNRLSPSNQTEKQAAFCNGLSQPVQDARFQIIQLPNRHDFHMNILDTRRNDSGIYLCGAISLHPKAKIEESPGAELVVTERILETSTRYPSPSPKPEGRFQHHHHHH

[5] = target: T4, mouse PD-1 expressed on cells (mouse, UniProt Q02242 25-288); experiment: cell-based or functional assay
T4 sequence (looked up): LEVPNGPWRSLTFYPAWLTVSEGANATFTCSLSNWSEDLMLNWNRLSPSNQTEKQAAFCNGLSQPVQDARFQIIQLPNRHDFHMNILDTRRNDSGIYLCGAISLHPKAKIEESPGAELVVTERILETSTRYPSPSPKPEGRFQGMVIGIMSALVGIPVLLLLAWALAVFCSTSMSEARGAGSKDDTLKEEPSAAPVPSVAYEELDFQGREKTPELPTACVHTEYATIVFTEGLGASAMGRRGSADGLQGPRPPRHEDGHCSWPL

[6] = target: T1, mPD1 (soluble, ELISA of Examples 20 and …); experiment: blocking ELISA, mPD1 to mPDL1
mPD-1-Fc [7] = target: T2, mPD-1-Fc; experiment: blocking ELISA, mPD-1 to PD-L1
[8] = target: T4, mouse PD-1 expressed on cells; experiment: flow cytometry, mPD1-293 cells
[9] = target: T4, mouse PD-1 expressed on cells; experiment: flow cytometry, mPD1-eff cells
mPD-1-Fc [10] = target: T2, mPD-1-Fc; experiment: ELISA, mPD-1-Fc on streptavidin
[11] = target: T4, mouse PD-1 expressed on cells; experiment: flow cytometry, mPD-1-293 cells
mPD-1-his [12] = target: T3, mPD-1-his; experiment: ELISA, mPD-1-his on streptavidin
[13] = target: T1, mPD1 (soluble, ELISA of Examples 20 and …); experiment: ELISA, biotin-mPD1 on streptavidin
[14] = target: hPD1 (soluble, ELISA of Example 20) (human, UniProt Q15116 25-167, limits assumed); experiment: ELISA, hPD1; direct binding ELISA on hPD1 (EC50 row)
hPD1 (soluble, ELISA of Example 20), sequence (Q15116 25-167 limits assumed): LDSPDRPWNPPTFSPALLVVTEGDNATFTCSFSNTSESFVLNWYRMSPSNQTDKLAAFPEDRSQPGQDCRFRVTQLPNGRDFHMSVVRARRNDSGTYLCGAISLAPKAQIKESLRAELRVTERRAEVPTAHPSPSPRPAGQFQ

hPD-1-Fc [15] = target: T5, hPD-1-Fc (human, UniProt Q15116 25-167); experiment: SPR, Exp. 1
T5 construct: domain: IgV domain; also called human PD-1-Fc; not shown: human IgG1 Fc
T5 sequence (Q15116 25-167 limits assumed): as above

hPD-1-his [16] = target: T6, hPD-1-his (human, UniProt Q15116 25-167); experiment: SPR, Exp. 1
T6 construct: domain: IgV domain; monomer in solution; biotin-labelled where captured by streptavidin; also called biotin-hPD-1-his
T6 sequence (Q15116 other isoform, or with tags, fused parts or gaps limits assumed): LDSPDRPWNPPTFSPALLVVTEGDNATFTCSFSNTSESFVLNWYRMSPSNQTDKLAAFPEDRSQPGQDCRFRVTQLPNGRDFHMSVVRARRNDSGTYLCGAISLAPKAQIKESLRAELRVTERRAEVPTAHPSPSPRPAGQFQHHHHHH

hPD-1-Fc [17] = target: T5, hPD-1-Fc; experiment: SPR, Exp. 2
hPD-1-his [18] = target: T6, hPD-1-his; experiment: SPR, Exp. 2
hPD-1-Fc [19] = target: T5, hPD-1-Fc; experiment: SPR, Exp. 3
hPD-1-his [20] = target: T6, hPD-1-his; experiment: SPR, Exp. 3
hPD-1-his [21] = target: T6, hPD-1-his; experiment: SPR, Exp. 4
hPD-1-Fc [22] = target: T5, hPD-1-Fc; experiment: ELISA, PD-1-Fc coated
hPD-1-Fc [23] = target: T5, hPD-1-Fc; experiment: ELISA, hPD-1-Fc coated
[24] = target: T7, human PD-1 expressed on cells (human, UniProt Q15116 25-288); experiment: cell-based or functional assay
T7 sequence (Q15116 25-288): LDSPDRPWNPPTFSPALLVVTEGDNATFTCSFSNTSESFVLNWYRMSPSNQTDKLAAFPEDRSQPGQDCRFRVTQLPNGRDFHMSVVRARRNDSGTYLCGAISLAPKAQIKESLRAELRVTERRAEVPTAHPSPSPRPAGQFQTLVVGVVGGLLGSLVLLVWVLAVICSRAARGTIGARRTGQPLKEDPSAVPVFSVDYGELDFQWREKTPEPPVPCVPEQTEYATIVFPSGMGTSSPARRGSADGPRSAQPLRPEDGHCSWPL

hPD-1-his [25] = target: T6, hPD-1-his; experiment: ELISA, PD-1-his on anti-his
hPD-1-his [26] = target: T6, hPD-1-his; experiment: ELISA, PD-1-his on anti-his; remark: listed apart in the source
hPD-1-Fc [27] = target: T5, hPD-1-Fc; experiment: SPR, range over experiments
hPD-1-Fc [28] = target: T5, hPD-1-Fc; experiment: blocking ELISA, PD-1 to PD-L1
hPD-1-Fc [29] = target: T5, hPD-1-Fc; experiment: blocking ELISA, PD-1 to PD-L2
[30] = target: T7, human PD-1 expressed on cells; experiment: flow cytometry, hPD1-293 cells
hPD-1-his [31] = target: T6, hPD-1-his; experiment: ELISA, PD-1-his on streptavidin
hPD-1-Fc [32] = target: T5, hPD-1-Fc; experiment: blocking ELISA, hPD-1 to hPD-L1; set-up: unit not given here
[33] = target: T7, human PD-1 expressed on cells; experiment: flow cytometry, hPD-1-293 cells
[34] = target: T7, human PD-1 expressed on cells; experiment: flow cytometry, hPD1-Jurkat cells
[35] = target: T7, human PD-1 expressed on cells; experiment: flow cytometry, hPD-1-Jurkat cells
hPD-1-Fc [36] = target: T5, hPD-1-Fc; experiment: SPR Biacore T200, PD-1-Fc immobilised
hPD-1-his [37] = target: T6, hPD-1-his; experiment: SPR Biacore T200, PD-1-his immobilised
hPD-1-his [38] = target: T6, hPD-1-his; experiment: ELISA, biotin-PD-1-his on streptavidin
[39] = target: T7, human PD-1 expressed on cells; experiment: flow cytometry, activated PBMC donor FA
[40] = target: T7, human PD-1 expressed on cells; experiment: flow cytometry, activated PBMC donor two
[41] = target: T7, human PD-1 expressed on cells; experiment: flow cytometry, SEB-activated PBMC donor
[42] = target: T7, human PD-1 expressed on cells; experiment: flow cytometry, SEB-activated PBMC donor two
hPD-1-his [43] = target: T6, hPD-1-his; experiment: SPR (Biacore), hPD1his immobilised; lower end of the printed KD range over the experiments
hPD-1-his [44] = target: T6, hPD-1-his; experiment: SPR (Biacore), hPD1his immobilised; upper end of the printed KD range over the experiments

B1: R3A9 (antibody, V domains shown)
VH: QVQLVQSGAEVKKPGASVKVSCKASGHTFTSYYIHWVRQAPGQGLEWMGIINPSGGSTSYAQKFQGRVTMTRDTSTSTVYMELSSLRSEDTAVYYCARDRAYGGAGDYWGQGTLVTVSS
VL: DIQMTQSPSSLSASVGDRVTITCRASQSVGTWLAWYQQKPGKAPKLLIYSASTLQSGVPSRFSGSGSGTDFTLTISSLQPEDFATYYCQQSYSAPLTFGGGTKVEIK
notes: also called 7115A; mPD1 parental (R3A9)
[1]
  EC50: 1360 pM
mPD-1-Fc [2]
  EC50: 14600 pM
mPD-1-Fc [3]
  Kd: 12100 pM
  koff: 0.0014 s⁻¹
  kon: 116000 M⁻¹ s⁻¹
mPD-1-his [4]
  Kd: 15700 pM
  koff: 0.00641 s⁻¹
  kon: 409000 M⁻¹ s⁻¹
[5]
  IC 50, Promega assay: 1.62 µg/mL
[6]
  IC50: 722 pM
mPD-1-Fc [7]
  IC50: 441 pM
[8]
  EC50: 314 pM
[9]
  EC50: 645 pM
mPD-1-Fc [10]
  EC50: 156 pM
[11]
  EC50: 566 pM
mPD-1-his [12]
  EC50: 1610 pM
[13]
  EC50: 462 pM
[14]
  EC50: 3250 pM

B2: 38A6 (antibody, V domains shown)
VH: EVQLLESGGGLVQPGGSLRLSCAASGFTFSSYWMSWVRQAPGKGLEWVSAISGSGGSTYYADSVKGRFTISRDNSKNTLYLQMNSLRAEDTAVYYCASSPLQWVDVWGQGTTVTVSS
VL: DIQMTQSPSSLSASVGDRVTITCRASQDISRWLGWYQQKPGKAPKLLIYAASTLQSGVPSRFSGSGSGTDFTLTISSLQPEDFATYYCQQANSFPFTFGPGTKLEIK
notes: also called 780_46
hPD-1-Fc [15]
  Kd: < 188 pM
hPD-1-his [16]
  Kd: 2300 pM
hPD-1-Fc [17]
  Kd: < 136 pM
hPD-1-his [18]
  Kd: < 586 pM
hPD-1-Fc [19]
  Kd: < 301 pM
hPD-1-his [20]
  Kd: < 574 pM
hPD-1-his [21]
  Kd: < 90 pM
hPD-1-Fc [22]
  EC50: 79 pM
hPD-1-Fc [23]
  OD at 10 nM: 0.993 OD
[24]
  EC50, Promega blockade bioassay: 0.164 µg/mL
  Fold induction: 5.66 fold
hPD-1-his [25]
  OD at 10 nM: 0.576 OD
hPD-1-his [26]
  EC50: 89 pM
hPD-1-Fc [27]
  Kd: 140 to 300 pM
hPD-1-Fc [28]
  IC50: ~2140 pM
  Inhibition % at 50 nM: 92.2%
  Inhibition, % at 5.56 nM: 92%
hPD-1-Fc [29]
  IC50: 2390 pM
  Inhibition, % at 3.7 nM: 90.4%
  Inhibition, % at 100 nM: 94.8%
[30]
  EC50: 150 pM
  MFI at 5 nM: 110 MFI
hPD-1-his [31]
  OD at 10 nM: 0.948 OD
hPD-1-Fc [32]
  Inhibition at 50 nM: 91.7
[33]
  MFI, 5 nM: 227 MFI
[34]
  EC50: 210 pM
  MFI at 5 nM: 89.5 MFI
[35]
  MFI, 5 nM: 59.9 MFI
hPD-1-Fc [36]
  Kd: 477 pM
hPD-1-his [37]
  Kd: 1180 pM
hPD-1-his [38]
  EC50: 84 pM
[39]
  EC50: 210 pM
  MFI at 25 nM: 14.5 MFI
[40]
  EC50: 170 pM
  MFI at 25 nM: 15.9 MFI
[41]
  MFI, 5 nM: 65.2 MFI
[42]
  MFI, 5 nM: 54.7 MFI
hPD-1-his [43]
  Kd: ≥ 900 pM
hPD-1-his [44]
  Kd: ≤ 2300 pM
